Test results: US20250186597A1, “TARGETED IMMUNE ACTIVATION WITH IL-18 IMMUNOCYTOKINES” (BRIGHT PEAK THERAPEUTICS AG, priority 2023, published 2025)

T1: human IL-18BP (Homo sapiens, UniProt O95998)
T1 construct: His
T1 sequence (O95998 31-194): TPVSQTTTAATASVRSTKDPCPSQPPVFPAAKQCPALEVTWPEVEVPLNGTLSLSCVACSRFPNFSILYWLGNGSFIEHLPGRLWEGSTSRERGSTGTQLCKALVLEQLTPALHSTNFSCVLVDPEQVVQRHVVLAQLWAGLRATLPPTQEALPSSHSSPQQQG


Columns and labels:
NK92 cells = assay: IFN gamma secretion assay in NK92 cells (Example 10); assay type: cell-based, human; settings: IFNγ secretion, 1 ng/ml IL-12
Protocol: The IFNγ-secretion stimulating activity of the unconjugated IL-18 variants and corresponding IL-18 immunocytokines was evaluated on NK92 cell line. The NK cell line NK-92 derived from a patient with lymphoma (ATCC, Cat #CRL-2407) was cultured in aMEM medium supplemented with 12.5% FCS, 12.5% horse serum (HS), 50 uM B-mercaptoEthanol, and 2 ng/ml of recombinant Human Interleukin-2 (IL-2).
On the day of experiment, cells were harvested and washed with aMEM medium without IL-2 and resuspended in medium (w/o IL-2) containing 1 ng/ml of recombinant human Interleukin-12 (SinoBiologicals, Cat #CT011-H08H). After counting, cells were seeded at 100 000 cells/well in a 384 well titer plate and incubated at 37° C./5% CO2. Sixteen 4-fold serial dilutions of IL-18 analytes were prepared in aMEM medium—1 ng/ml IL-12 and were added to the NK-92 cells. […]
After 16-20 h incubation at 37° C./5% CO2, 5 μl of supernatant were carefully transferred to a 384 microwells OPTIPlate (Perkin Elmer; Cat #6007270) and Interferon-gamma (IFNγ) levels measured using the Human IFNγ AlphaLISA Assay Kit (Perkin Elmer, Cat #AL217C). […] AlphaLisa signal was then measured on an Enspire plate reader (Perkin Elmer) using 680 and 615 nm as excitation and emission wavelengths respectively. Half maximal effective concentration (EC50) was calculated based on a variable slope, four parameter analysis using GraphPad PRISM software.

human IL-18BP = target: T1, human IL-18BP; assay: IL-18BP binding alphaLISA assay (Example 4, used in Example 22B); settings: IL-18BP AlphaLISA
NK-92 cells [1] = assay: IFNγ induction cellular assay in NK-92 cells (Example 4, used in Example 22C); assay type: cell-based, human; settings: IFNg stimulation in NK92 cells
NK-92 cells [2] = assay: IL-18 binding protein inhibition cellular assay in NK-92 cells (Example 4, used in Example 22C); assay type: cell-based, human; settings: inhibition by IL-18BP of IFNg stimulation in NK92 cells
Protocol: The NK cell line NK-92 derived from a patient with lymphoma (ATCC® CRL-2407™) is cultured in aMEM medium supplemented with 20% FCS-Glutamax, 25 µM B-mercaptoethanol, and 100 IU/mL of recombinant human IL-2.
On the day of experiment, cells are harvested and washed with aMEM medium without IL-2 and containing 1 ng/mL of recombinant human IL-12. After counting, the cells are seeded at 100,000 cells/well in a 384 well titer plate and incubated at 37° C./5% CO2. Sixteen 2-fold serial dilutions of Fc-fused human IL-18 binding protein isoform a (IL-18BPa) are prepared in aMEM medium. 1 ng/mL of IL-12 containing 2 nM of each IL-18 polypeptide variant is added to the NK-92 cells. The final IL-18 analyte concentration is 1 nM, and the final IL-18BPa concentration ranged from 566 nM to […].
After incubating the cells for 16-20 hr at 37° C./5% CO2, 5 μL of the supernatant is carefully transferred to a 384 microwell OptiPlate. IFNγ levels are measured using a human IFNγ AlphaLISA Assay Kit. Briefly, 10 μL of 2.5× AlphaLISA anti-IFNγ acceptor beads and biotinylated antibody anti-IFNγ mix are added to 5 μL of NK-92 supernatants. The mixtures are incubated for 1 hr at room temperature with shaking. Under subdued light, 2.5 μL of 2×SA donor beads are pipetted in each well and incubated for 30 min at room temperature with shaking. AlphaLISA signals are then measured on an EnSpire™ plate reader using 680 nm and 615 nm as excitation and emission wavelengths, respectively. Half maximal inhibitory concentrations (IC50) are calculated based on a variable slope and four parameter analysis using GraphPad PRISM software.
The experiments described in Example 4 for determination of IFNg stimulation in NK92 cells (and inhibition by IL-18 BP) were performed substantially as described on IL-18 polypeptides in order to assess their activities and their suitability for incorporation into immunocytokine compositions. It is expected that the IL-18 polypeptides provided below would behave analagously to C086 (SEQ ID NO: 30) when incorporated into an immunocytokine composition as those otherwise provided herein.

| EC50 (NK92 cells) [nM] | Kd (human IL-18BP) [nM] | EC50 (NK-92 cells [1]) [nM] | IC50 (NK-92 cells [2]) [nM] | Molecule |
| --- | --- | --- | --- | --- |
| 0.008 |  |  |  | SEQ ID NO: 60: IL-18 polypeptide: E6K, C38Q, K53A (protein) YFGKLKSKLSVIRNLNDQVLFIDQGNRPLFEDMTDSDQRDNAPRTIFIISMYADSQPRGMAVTISVKCEKISTLSCENKIISFKEMNPPDNIKDTKSDIIFFQRSVPGHDNKMQFESSSYEGYFLACEKERDLFKLILKKEDELGDRSIMFTVQNED |
|  | 36 | 0.015 | 654 | 59 (protein) YFGKLKSKLSVIRNLNDQVLFIDQGNRPLFEDMTDSDARDNAPRTIFIISMYADSQPRGMAVTISVKCEKISTLSCENKIISFKEMNPPDNIKDTKSDIIFFQRSVPGHDNKMQFESSSYEGYFLACEKERDLFKLILKKEDELGDRSIMFTVQNED |
|  | 0.05 | 0.098 | 0.176 | C168: IL-18 polypeptide: V11I, C38A, C76A, S105K, C127A (protein) YFGKLESKLSIIRNLNDQVLFIDQGNRPLFEDMTDSDARDNAPRTIFIISMYKDSQPRGMAVTISVKCEKISTLSAENKIISFKEMNPPDNIKDTKSDIIFFQRKVPGHDNKMQFESSSYEGYFLAAEKERDLFKLILKKEDELGDRSIMFTVQNED |
|  | 69.6 | 0.026 | 284 | 62 (protein) YFGKLKSKLSVIRNLNDQVLFIDQGNRPLFEDMTDSDARDNAPRTIFIISMYADSQPRGMAVTISVKCEKISTLSCENKIISFKEMNPPDNIKDTKSDIIFFQRSVPGHDNKMQFESSSYEGYFLAAEKERDLFKLILKKEDELGDRSIMFTVQNED |
|  | 0.02 | 0.098 | 0.44 | C166: IL-18 polypeptide: V11I, C38A, S55T, C76A, C127A (protein) YFGKLESKLSIIRNLNDQVLFIDQGNRPLFEDMTDSDARDNAPRTIFIISMYKDTQPRGMAVTISVKCEKISTLSAENKIISFKEMNPPDNIKDTKSDIIFFQRSVPGHDNKMQFESSSYEGYFLAAEKERDLFKLILKKEDELGDRSIMFTVQNED |
|  | 969 | > 55 | > 55 | 35 (protein) GAGKLKSKLSVIRNLNDQVLFIDQGNRPLFEDMTDSDCRDNAPRTIFIISGYAAAQPRGMAVAISVKCEKISTLSCENKIISFKEMNPPDNIKDTKSDIIFFQRSVPGHDNKMQFESSSYEGYFLACEKERDLFKLILKKEDELGDRSIMFTVQNED |
|  | 24.8 | 0.006 | 780 | 60 (protein) YFGKLKSKLSVIRNLNDQVLFIDQGNRPLFEDMTDSDQRDNAPRTIFIISMYADSQPRGMAVTISVKCEKISTLSCENKIISFKEMNPPDNIKDTKSDIIFFQRSVPGHDNKMQFESSSYEGYFLACEKERDLFKLILKKEDELGDRSIMFTVQNED |
|  | 0.15 | 0.176 | 0.885 | C165: IL-18 polypeptide: V11I, C38A, S55R, C76A, C127A (protein) YFGKLESKLSIIRNLNDQVLFIDQGNRPLFEDMTDSDARDNAPRTIFIISMYKDRQPRGMAVTISVKCEKISTLSAENKIISFKEMNPPDNIKDTKSDIIFFQRSVPGHDNKMQFESSSYEGYFLAAEKERDLFKLILKKEDELGDRSIMFTVQNED |
|  | 0.04 | 0.103 | 0.809 | C167: IL-18 polypeptide: V11I, C38A, C76A, S105I, C127A (protein) YFGKLESKLSIIRNLNDQVLFIDQGNRPLFEDMTDSDARDNAPRTIFIISMYKDSQPRGMAVTISVKCEKISTLSAENKIISFKEMNPPDNIKDTKSDIIFFQRIVPGHDNKMQFESSSYEGYFLAAEKERDLFKLILKKEDELGDRSIMFTVQNED |
